Ends that are not written are not given here. * marks the point of attachment. Biotin = O=C1N[C@H]2[C@H](CS[C@H]2CCCCC(=O)*)N1

T1: GST-TAX-IP43 PDZ domain fusion protein (human, UniProt Q13884 109-180)
T1 construct: also called TAX43; not shown: glutathione S-transferase encoded by vector pGEX-3X (Pharmacia)
T1 sequence: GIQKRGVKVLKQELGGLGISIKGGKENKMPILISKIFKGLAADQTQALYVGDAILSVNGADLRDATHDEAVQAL

T2: GST-TAX-IP2 PDZ domain fusion protein (human, UniProt O14908 129-216)
T2 construct: also called TAX-1P2; TAX2; not shown: glutathione S-transferase encoded by vector pGEX-3X (Pharmacia)
T2 chain: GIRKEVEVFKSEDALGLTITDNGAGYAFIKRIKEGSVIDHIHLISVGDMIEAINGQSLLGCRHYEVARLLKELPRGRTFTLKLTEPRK

T3: GST-PTN-4 PDZ domain fusion protein (Homo sapiens (Human), UniProt P29074 517-605)
T3 construct: also called protein-tyrosine phosphatase meg1; not shown: glutathione S-transferase encoded by vector pGEX-3X (Pharmacia)
T3 sequence: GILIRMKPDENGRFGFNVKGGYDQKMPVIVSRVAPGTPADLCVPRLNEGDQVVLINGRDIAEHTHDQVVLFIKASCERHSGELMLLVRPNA

T4: GST-MPP1 PDZ domain fusion protein (Homo sapiens (Human), UniProt Q00013 67-152)
T4 construct: also called p55; 55 Kd erythrocyte membrane protein; not shown: glutathione S-transferase encoded by vector pGEX-3X (Pharmacia)
T4 sequence: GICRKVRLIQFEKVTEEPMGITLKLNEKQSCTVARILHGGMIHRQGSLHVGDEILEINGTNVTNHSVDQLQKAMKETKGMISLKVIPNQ

T5: GST-prIL16 fusion protein (PDZ domains 1-2) (Homo sapiens (Human), UniProt Q14005 1111-1324)
T5 construct: also called putative interleukin 16 precursor; not shown: glutathione S-transferase encoded by vector pGEX-3X (Pharmacia)
T5 sequence: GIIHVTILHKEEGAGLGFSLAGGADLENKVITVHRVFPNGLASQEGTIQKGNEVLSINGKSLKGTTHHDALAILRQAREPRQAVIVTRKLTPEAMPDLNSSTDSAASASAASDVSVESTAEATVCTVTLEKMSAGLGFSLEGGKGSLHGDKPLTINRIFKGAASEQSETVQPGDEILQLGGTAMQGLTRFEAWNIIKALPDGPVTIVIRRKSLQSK

T6: GST-PDZK1 fusion protein (PDZ domains 2-4) (Homo sapiens, UniProt Q5T2W1 134-457)
T6 construct: not shown: glutathione S-transferase encoded by vector pGEX-3X (Pharmacia)
T6 sequence: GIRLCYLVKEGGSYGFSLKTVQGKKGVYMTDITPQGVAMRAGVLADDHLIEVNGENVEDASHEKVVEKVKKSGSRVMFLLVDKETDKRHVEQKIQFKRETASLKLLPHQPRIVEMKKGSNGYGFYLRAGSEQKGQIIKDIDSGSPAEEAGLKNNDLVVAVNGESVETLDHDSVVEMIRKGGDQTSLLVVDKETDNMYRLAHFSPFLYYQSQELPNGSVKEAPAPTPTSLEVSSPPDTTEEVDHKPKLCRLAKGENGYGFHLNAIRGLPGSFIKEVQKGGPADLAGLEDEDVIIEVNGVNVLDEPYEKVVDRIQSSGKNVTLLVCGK

T7: GST-mouse syntenin fusion protein (Mus musculus, UniProt O08992 108-286)
T7 construct: also called Mus musculus Syntenin; not shown: glutathione S-transferase encoded by vector pGEX-3X (Pharmacia)
T7 chain: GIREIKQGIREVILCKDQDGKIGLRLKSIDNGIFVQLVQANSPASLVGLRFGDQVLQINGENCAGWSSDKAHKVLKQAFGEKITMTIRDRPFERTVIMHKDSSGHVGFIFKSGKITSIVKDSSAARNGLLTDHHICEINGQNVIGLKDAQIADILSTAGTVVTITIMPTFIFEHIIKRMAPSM

T8: GST-DVL1 PDZ domain fusion protein (human, UniProt O14640 247-339)
T8 construct: also called human dishevelled segment polarity protein homolog; not shown: glutathione S-transferase encoded by vector pGEX-3X (Pharmacia)
T8 sequence: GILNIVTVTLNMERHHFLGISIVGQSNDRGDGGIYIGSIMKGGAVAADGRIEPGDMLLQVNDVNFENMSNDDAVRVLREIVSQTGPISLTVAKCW

T9: TAX-IP33 PDZ-GST fusion protein (Homo sapiens (Human), UniProt O14910 103-193)
T9 construct: Order of GST and PDZ part and limits not seen in the excerpts
T9 sequence: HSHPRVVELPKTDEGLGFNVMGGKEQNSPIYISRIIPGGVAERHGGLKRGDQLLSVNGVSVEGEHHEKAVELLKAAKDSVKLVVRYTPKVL

T10: K559 PDZ-GST fusion protein (Homo sapiens (Human), UniProt Q9Y6V0 4489-4593)
T10 construct: Order of GST and PDZ part and limits not seen in the excerpts
T10 sequence: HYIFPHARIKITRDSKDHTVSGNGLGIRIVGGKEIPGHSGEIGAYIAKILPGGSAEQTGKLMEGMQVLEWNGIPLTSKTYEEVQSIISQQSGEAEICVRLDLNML

T11: SP short PDZ-GST fusion protein (Homo sapiens (Human), UniProt O43464 350-435)
T11 construct: The label SP short is not explained in the excerpts
T11 sequence: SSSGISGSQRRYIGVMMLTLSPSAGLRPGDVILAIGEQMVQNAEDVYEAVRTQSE

B1: CD95 (Fas) C-terminal peptide AA13L, biotinylated (peptide)
peptide: Biotin-KDITSDSENSNFRNEIQSLV
notes: also called CD95 (Apo-1/Fas); AAI3L
B2: CD138 C-terminal peptide AA18L, biotinylated (peptide)
peptide: Biotin-PKQANGGAYQKPTKQEEFYA
notes: also called CD138 (syndecan-1); CD138 (syndecan)
B3: CDW125 (IL5R) C-terminal peptide AA28L, biotinylated (peptide)
peptide: Biotin-EVICYIEKPGVETLEDSVF
B4: Glycophorin C C-terminal peptide AA37L, biotinylated (peptide)
peptide: Biotin-QGDPALQDAGDSSRKEYFI
notes: also called GC
B5: KV1.3 C-terminal peptide AA33L, biotinylated (peptide)
peptide: Biotin-TTNNNPNSAVNIKKIFTDV
B6: CD49E C-terminal peptide AA11L, biotinylated (peptide)
peptide: Biotin-PYGTAMEKAQLKPPATSDA
notes: also called CD49E (alpha-4)
B7: BLR-1 C-terminal peptide AA45L, biotinylated (peptide)
peptide: Biotin-PSWRRSSLSESENATSLTTF
notes: also called CXCR5

T13 sequence (Q2T9M1 other isoform, or with tags, fused parts or gaps limits assumed): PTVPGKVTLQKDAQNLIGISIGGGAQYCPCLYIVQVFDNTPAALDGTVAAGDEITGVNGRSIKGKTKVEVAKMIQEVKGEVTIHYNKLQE

The target in the first assay is T1, GST-TAX-IP43 PDZ domain fusion protein. As to the kind of experiment: A/G assays.
B1: the binding result is “no binding”.
On the same count and under the same terms, the same measure for B2: “no binding”.
On the same count and under the same terms, the same measure for B3: “no binding”; for B4: “no binding”; for B5: “no binding”.
Still for that read-out and setting: the result for B6 reads “no binding”; that for B7, “no binding”.

The target in another assay is T2, GST-TAX-IP2 PDZ domain fusion protein. As to the kind of experiment: A/G assays.
In the case of B1, the binding result is reported as “no binding”.
On to B2, for which the binding result is “no binding”.
Still for that read-out and setting: the same measure for B3: “no binding”; for B4: “no binding”.
Still for that read-out and setting: the result for B5 reads “no binding”; that for B6, “no binding”.
In the case of B7, the binding result was “no binding”.

Another assay concerns the target T3, GST-PTN-4 PDZ domain fusion protein. As to the kind of experiment: A/G assays.
Take B1: the binding result is on record as “no binding”.
B2: the binding result is on record as “no binding”.
For B4, the binding result is given as “no binding”.
Same read-out and setting: the result for B5 reads “no binding”.
For B6, the binding result is on record as “no binding”.
As to B7, the binding result is “no binding”.

In another assay the target is T4, GST-MPP1 PDZ domain fusion protein. Put plainly: A/G assays.
For the molecule B1, the binding result was “no binding”.
On the same count and under the same terms, the same measure for B2: “no binding”.
The same measure, in the same setting: the result for B3 reads “no binding”.
On to B5, for which the binding result is recorded as “no binding”.
Regarding B6, the binding result is on record as “no binding”.
Still for that read-out and setting: the same measure for B7: “no binding”.

Another assay addresses T5, GST-prIL16 fusion protein (PDZ domains …). As to the kind of experiment: A/G assays.
Regarding B1, the binding result was “no binding”.
Same read-out and setting: the result for B2 reads “no binding”.
Same read-out and setting: the result for B3 reads “no binding”.
As for B4, the binding result is listed as “no binding”.
As for B5, the binding result is “no binding”.
On the same count and under the same terms, the same measure for B6: “no binding”; for B7: “no binding”.

A further assay deals with T6, GST-PDZK1 fusion protein (PDZ domains …). Put plainly: A/G assays.
As for B1, the binding result is given as “no binding”.
The same measure, in the same setting: the result for B2 reads “no binding”; that for B3, “no binding”.
Still for that read-out and setting: the result for B4 reads “no binding”.
The same measure, in the same setting: the result for B5 reads “no binding”; that for B6, “no binding”.

The target of the next assay is T7, GST-mouse syntenin fusion protein. As to the kind of experiment: A/G assays.
For B1, the binding result was “no binding”.
Same read-out and setting: the result for B3 reads “no binding”; that for B4, “no binding”; that for B5, “no binding”.
Regarding B6, the binding result was “no binding”.
With B7, the binding result is on record as “no binding”.

Another assay deals with T12, GST-TIAM1 PDZ domain fusion protein (Homo sapiens (Human), UniProt Q13009 845-931).
T12 construct: also called TLAM1; T-lymphoma invasion and metastasis inducing protein 1; not shown: glutathione S-transferase encoded by vector pGEX-3X (Pharmacia)
T12 sequence (Q13009 other isoform, or with tags, fused parts or gaps): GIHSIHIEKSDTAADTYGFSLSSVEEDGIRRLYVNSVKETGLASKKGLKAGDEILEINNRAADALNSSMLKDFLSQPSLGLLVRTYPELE
Put plainly: A/G assays.
As for B1, the binding result was “no binding”.
With B3, the binding result is reported as “no binding”.
With B4, the binding result is on record as “no binding”.
On the same count and under the same terms, the result for B5 reads “no binding”; that for B6, “no binding”; that for B7, “no binding”.

The target of the next assay is T8, GST-DVL1 PDZ domain fusion protein. As to the kind of experiment: A/G assays.
As for B1, the binding result is recorded as “no binding”.
As to B2, the binding result is “no binding”.
Same read-out and setting: the same measure for B3: “no binding”; for B4: “no binding”.
On to B6, for which the binding result is “no binding”.
On to B7, for which the binding result was “no binding”.

Another assay concerns the target T9, TAX-IP33 PDZ-GST fusion protein. As to the kind of experiment: A/G assays.
For the molecule B1, the binding result is “no binding”.
Same read-out and setting: the same measure for B2: “no binding”; for B3: “no binding”; for B4: “no binding”.
Still for that read-out and setting: the same measure for B5: “no binding”; for B6: “no binding”; for B7: “no binding”.

For the next assay, the target named is T10, K559 PDZ-GST fusion protein. As to the kind of experiment: A/G assays.
On to B1, for which the binding result is recorded as “no binding”.
On the same count and under the same terms, the result for B2 reads “no binding”; that for B3, “no binding”; that for B4, “no binding”.
Turning to B5, the binding result was “no binding”.
As to B6, the binding result was “no binding”.
Still for that read-out and setting: the result for B7 reads “no binding”.

The next assay concerns the target T13, PICK1 PDZ-GST fusion protein (Bos taurus (Bovine), UniProt Q2T9M1 17-105).
T13 construct: Order of GST and PDZ part and limits not seen in the excerpts
Put plainly: A/G assays.
Consider B1, for which the binding result was “no binding”.
As to B2, the binding result is “no binding”.
As to B3, the binding result is reported as “no binding”.
On to B4, for which the binding result is “no binding”.
On the same count and under the same terms, the same measure for B5: “no binding”; for B6: “no binding”.
On the same count and under the same terms, the same measure for B7: “no binding”.

A further assay deals with T14, K316 PDZ-GST fusion protein (Homo sapiens (Human), UniProt Q14CM0 72-159).
T14 construct: Order of GST and PDZ part and limits not seen in the excerpts
T14 sequence (Q14CM0 72-159 limits assumed): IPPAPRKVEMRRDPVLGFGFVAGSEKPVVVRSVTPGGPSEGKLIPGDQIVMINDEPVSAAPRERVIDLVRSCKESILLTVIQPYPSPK
Put plainly: A/G assays.
In the case of B1, the binding result is “no binding”.
For the molecule B2, the binding result is listed as “no binding”.
Turning to B3, the binding result was “no binding”.
Regarding B4, the binding result is “no binding”.
Still for that read-out and setting: the result for B5 reads “no binding”; that for B6, “no binding”.
Turning to B7, the binding result is reported as “no binding”.

Another assay addresses T11, SP short PDZ-GST fusion protein. Put plainly: A/G assays.
With B1, the binding result is “no binding”.
On the same count and under the same terms, the same measure for B2: “no binding”; for B3: “no binding”.
The same measure, in the same setting: the same measure for B4: “no binding”; for B5: “no binding”.
The same measure, in the same setting: the same measure for B6: “no binding”.
Take B7: the binding result was “no binding”.

In a further assay the target is T15, NOS1 PDZ-GST fusion protein (Homo sapiens (Human), UniProt P29475 11-100).
T15 construct: Order of GST and PDZ part and limits not seen in the excerpts
T15 sequence (P29475 11-100 limits assumed): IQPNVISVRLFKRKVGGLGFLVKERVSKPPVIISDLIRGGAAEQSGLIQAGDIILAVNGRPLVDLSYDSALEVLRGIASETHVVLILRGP
Put plainly: A/G assays.
Take B1: the binding result is reported as “no binding”.
B2: the binding result is “no binding”.
On to B3, for which the binding result is listed as “no binding”.
Take B4: the binding result was “no binding”.
On to B5, for which the binding result was “no binding”.
For the molecule B6, the binding result is reported as “no binding”.
Turning to B7, the binding result is listed as “no binding”.
